Test results from patent publication US20210179729A1 (University of California, published 2021).

T1: CDCP1 extracellular domain displayed on the surface of HEK293 (T-Rex-293) cells (human, UniProt Q9H5V8 30-667)
T1 construct: extracellular domain; also called CDCP1 Cell; not shown: fluorescent protein expression reporter and generic single-pass transmembrane domain
T1 sequence (looked up): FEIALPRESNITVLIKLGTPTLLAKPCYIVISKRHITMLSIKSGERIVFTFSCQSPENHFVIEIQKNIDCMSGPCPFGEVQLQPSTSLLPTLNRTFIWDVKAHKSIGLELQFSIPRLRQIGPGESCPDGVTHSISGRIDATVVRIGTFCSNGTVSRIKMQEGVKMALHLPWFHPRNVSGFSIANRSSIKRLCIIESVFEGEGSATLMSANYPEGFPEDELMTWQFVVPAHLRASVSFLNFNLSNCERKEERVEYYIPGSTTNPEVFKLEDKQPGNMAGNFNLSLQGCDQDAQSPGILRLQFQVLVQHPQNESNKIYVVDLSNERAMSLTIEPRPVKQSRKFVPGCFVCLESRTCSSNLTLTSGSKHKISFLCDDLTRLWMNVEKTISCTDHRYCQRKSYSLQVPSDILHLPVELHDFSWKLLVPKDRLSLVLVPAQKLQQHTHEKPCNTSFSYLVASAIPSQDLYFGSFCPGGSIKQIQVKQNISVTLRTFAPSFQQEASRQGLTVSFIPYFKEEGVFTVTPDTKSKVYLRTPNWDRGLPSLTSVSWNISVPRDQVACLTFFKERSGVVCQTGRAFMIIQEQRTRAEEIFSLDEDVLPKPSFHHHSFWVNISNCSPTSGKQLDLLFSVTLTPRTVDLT

T2: CDCP1 aas 30-367 (human, UniProt Q9H5V8 30-367)
T2 construct: range 30-367
T2 sequence (looked up): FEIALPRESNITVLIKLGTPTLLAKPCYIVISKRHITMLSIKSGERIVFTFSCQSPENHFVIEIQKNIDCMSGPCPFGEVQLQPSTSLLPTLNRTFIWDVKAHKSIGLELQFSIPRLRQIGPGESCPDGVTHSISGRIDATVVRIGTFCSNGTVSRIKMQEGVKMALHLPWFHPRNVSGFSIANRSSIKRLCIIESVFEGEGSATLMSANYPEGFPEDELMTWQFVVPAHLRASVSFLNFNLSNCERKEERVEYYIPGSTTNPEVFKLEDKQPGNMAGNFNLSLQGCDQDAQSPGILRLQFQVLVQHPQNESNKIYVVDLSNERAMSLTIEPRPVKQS

T3: Human CDCP1 (human, UniProt Q9H5V8 30-667, limits assumed)
T3 construct: also called CUB domain-containing protein 1; SIMA135
T3 sequence (looked up): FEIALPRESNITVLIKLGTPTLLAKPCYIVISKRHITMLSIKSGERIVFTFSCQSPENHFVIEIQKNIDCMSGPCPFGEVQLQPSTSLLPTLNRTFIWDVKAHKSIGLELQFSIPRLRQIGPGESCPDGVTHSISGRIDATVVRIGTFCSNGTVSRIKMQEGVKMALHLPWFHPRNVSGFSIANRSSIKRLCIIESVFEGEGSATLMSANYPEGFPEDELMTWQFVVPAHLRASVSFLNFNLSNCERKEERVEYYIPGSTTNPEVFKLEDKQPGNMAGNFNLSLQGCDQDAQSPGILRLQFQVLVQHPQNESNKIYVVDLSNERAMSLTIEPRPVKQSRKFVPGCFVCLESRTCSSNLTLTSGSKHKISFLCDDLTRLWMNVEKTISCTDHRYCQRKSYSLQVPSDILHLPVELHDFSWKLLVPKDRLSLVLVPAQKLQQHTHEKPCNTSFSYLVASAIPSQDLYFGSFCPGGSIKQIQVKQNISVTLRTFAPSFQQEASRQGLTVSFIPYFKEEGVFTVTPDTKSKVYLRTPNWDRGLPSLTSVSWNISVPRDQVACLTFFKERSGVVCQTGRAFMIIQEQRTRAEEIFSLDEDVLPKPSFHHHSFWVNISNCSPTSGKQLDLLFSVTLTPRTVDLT

T4: Cynomolgus monkey CDCP1 (Cynomolgus monkey, UniProt A0A2K5VLA8 30-667)
T4 construct: construct not described
T4 sequence: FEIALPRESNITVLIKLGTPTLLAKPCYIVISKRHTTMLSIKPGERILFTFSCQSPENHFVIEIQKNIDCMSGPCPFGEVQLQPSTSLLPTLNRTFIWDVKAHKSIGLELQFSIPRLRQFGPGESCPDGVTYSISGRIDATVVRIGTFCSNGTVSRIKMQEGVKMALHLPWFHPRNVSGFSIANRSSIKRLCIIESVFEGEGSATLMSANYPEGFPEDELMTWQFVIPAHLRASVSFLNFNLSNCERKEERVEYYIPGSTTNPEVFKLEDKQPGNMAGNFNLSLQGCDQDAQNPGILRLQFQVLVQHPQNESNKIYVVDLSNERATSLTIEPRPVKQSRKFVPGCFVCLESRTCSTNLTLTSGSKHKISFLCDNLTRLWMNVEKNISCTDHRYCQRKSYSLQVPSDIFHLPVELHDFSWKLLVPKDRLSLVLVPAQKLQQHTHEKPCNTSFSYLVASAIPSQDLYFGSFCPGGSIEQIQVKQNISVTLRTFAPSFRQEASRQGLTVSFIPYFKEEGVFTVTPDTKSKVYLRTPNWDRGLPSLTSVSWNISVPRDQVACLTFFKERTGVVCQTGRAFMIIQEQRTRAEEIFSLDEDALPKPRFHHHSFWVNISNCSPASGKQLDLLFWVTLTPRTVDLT


Experiments:
[1] = biological target: CDCP1 on human cells (MCF10A KRASG12V, HPAC) (human) (UniProt Q9H5V8); experiment: cell-based or functional assay
[2] = biological target: CD3 on the surface of T-cells (Jurkat reporter cells) (UniProt P07766); experiment: cell-based or functional assay
Sequence of CD3 on the surface of T-cells (Jurkat reporter cells) (P07766 23-207): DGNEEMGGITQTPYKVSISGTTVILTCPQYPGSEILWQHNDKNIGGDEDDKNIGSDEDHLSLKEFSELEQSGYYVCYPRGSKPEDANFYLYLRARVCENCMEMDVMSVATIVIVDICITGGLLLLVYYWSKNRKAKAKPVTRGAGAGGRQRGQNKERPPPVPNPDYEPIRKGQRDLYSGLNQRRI

[3] = biological target: T1, CDCP1 extracellular domain displayed on …; experiment: flow cytometry, Fab on CDCP1 Cell
CDCP1 aas 30-367 = biological target: T2, CDCP1 aas 30-367; experiment: ELISA, CDCP1 specificity on fragments
Human CDCP1 = biological target: T3, Human CDCP1; experiment: ELISA; column head 'ELISA~EC50 Kd (nM)'
Cynomolgus monkey CDCP1 = biological target: T4, Cynomolgus monkey CDCP1; experiment: ELISA; column head 'ELISA~EC50 Kd (nM)'

Molecule	T-cell activation (NFAT-dependent GFP reporter, flow cytometry) in co-culture with HPAC cells at 1 nM BiTE [1] [%]	T-cell activation (NFAT-dependent GFP reporter, flow cytometry) in co-culture with HPAC cells at 1 nM BiTE [2] [%]	Flow Cytometry (MFI) [3] [MFI]	binding result (CDCP1 aas 30-367)	EC50 (Human CDCP1) [nM]	EC50 (Cynomolgus monkey CDCP1) [nM]
CDCP1 BiTE (CDCP1-002 Fab genetically fused to OKT3 anti-CD3 scFv) (bispecific antibody)	75	75	–	–	–	–
CDCP1-006 Fab (Fab, V domains shown, Tested as Fab) VH: EVQLVESGGGLVQPGGSLRLSCAASGFNLYYSYMHWVRQAPGKGLEWVAYISPYSGSTYYADSVKGRFTISADTSKNTAYLQMNSLRAEDTAVYYCARYSYSALDYWGQGTLVTVSS VL: DIQMTQSPSSLSASVGDRVTITCRASQSVSSAVAWYQQKPGKAPKLLIYSASSLYSGVPSRFSGSRSGTDFTLTISSLQPEDFATYYCQQSSWHYHLFTFGQGTKVEIK	–	–	52.3	no binding	29.6	3.34
CDCP1-004 Fab (Fab, V domains shown, Tested as Fab) VH: EVQLVESGGGLVQPGGSLRLSCAASGFNISYYYMHWVRQAPGKGLEWVASIYSSYGYTSYADSVKGRFTISADTSKNTAYLQMNSLRAEDTAVYYCARVYYGFDYWGQGTLVTVSS VL: DIQMTQSPSSLSASVGDRVTITCRASQSVSSAVAWYQQKPGKAPKLLIYSASSLYSGVPSRFSGSRSGTDFTLTISSLQPEDFATYYCQQSYYVYPITFGQGTKVEIK	–	–	770	–	2.37	34.9
CDCP1-007 Fab (Fab, V domains shown, Tested as Fab) VH: EVQLVESGGGLVQPGGSLRLSCAASGFNIYSYYIHWVRQAPGKGLEWVASIYPYYGYTSYADSVKGRFTISADTSKNTAYLQMNSLRAEDTAVYYCARAYYGMDYWGQGTLVTVSS VL: DIQMTQSPSSLSASVGDRVTITCRASQSVSSAVAWYQQKPGKAPKLLIYSASSLYSGVPSRFSGSRSGTDFTLTISSLQPEDFATYYCQQSYFYWPITFGQGTKVEIK	–	–	2.33	–	18	22.4
CDCP1-003 Fab (Fab, V domains shown, Tested as Fab) VH: EVQLVESGGGLVQPGGSLRLSCAASGFNISYYSMHWVRQAPGKGLEWVASISPYSGYTSYADSVKGRFTISADTSKNTAYLQMNSLRAEDTAVYYCARGYYALDYWGQGTLVTVSS VL: DIQMTQSPSSLSASVGDRVTITCRASQSVSSAVAWYQQKPGKAPKLLIYSASSLYSGVPSRFSGSRSGTDFTLTISSLQPEDFATYYCQQYYYFYPFTFGQGTKVEIK	–	–	180	–	65.3	666
CDCP1-008 Fab (Fab, V domains shown, Tested as Fab) VH: EVQLVESGGGLVQPGGSLRLSCAASGFNISSYYMHWVRQAPGKGLEWVASIYPYSGYTYYADSVKGRFTISADTSKNTAYLQMNSLRAEDTAVYYCARAYYAMDYWGQGTLVTVSS VL: DIQMTQSPSSLSASVGDRVTITCRASQSVSSAVAWYQQKPGKAPKLLIYSASSLYSGVPSRFSGSRSGTDFTLTISSLQPEDFATYYCQQSYYVYPITFGQGTKVEIK	–	–	673	–	76.2	97.1
CDCP1-005 Fab (Fab, V domains shown, Tested as Fab) VH: EVQLVESGGGLVQPGGSLRLSCAASGFNISYYYIHWVRQAPGKGLEWVASIYPYYGSTYYADSVKGRFTISADTSKNTAYLQMNSLRAEDTAVYYCARAYYGFDYWGQGTLVTVSS VL: DIQMTQSPSSLSASVGDRVTITCRASQSVSSAVAWYQQKPGKAPKLLIYSASSLYSGVPSRFSGSRSGTDFTLTISSLQPEDFATYYCQQSYWSFPITFGQGTKVEIK	–	–	870	–	–	–
CDCP1-002 Fab (Fab, V domains shown, Tested as Fab from a synthetic Fab-phage library; Used 89Zr-labeled for PET and 125I-labeled for Bmax; also called CDCP1-4A06; CDCP1 Fab) VH: EVQLVESGGGLVQPGGSLRLSCAASGFNLSYYYIHWVRQAPGKGLEWVASIYSSSSYTSYADSVKGRFTISADTSKNTAYLQMNSLRAEDTAVYYCARAYYGFDYWGQGTLVTVSS VL: DIQMTQSPSSLSASVGDRVTITCRASQSVSSAVAWYQQKPGKAPKLLIYSASSLYSGVPSRFSGSRSGTDFTLTISSLQPEDFATYYCQQSYYYYPITFGQGTKVEIK	–	–	1160	–	0.651	19.6
